Measurements from patent US20140178390A1 (published 2014).

Biological target: Human CXCR7 (UniProt P25106 1-362)
Assay: FACS competition with biotinylated SDF-1

Human CXCR7, sequence (P25106 whole entry): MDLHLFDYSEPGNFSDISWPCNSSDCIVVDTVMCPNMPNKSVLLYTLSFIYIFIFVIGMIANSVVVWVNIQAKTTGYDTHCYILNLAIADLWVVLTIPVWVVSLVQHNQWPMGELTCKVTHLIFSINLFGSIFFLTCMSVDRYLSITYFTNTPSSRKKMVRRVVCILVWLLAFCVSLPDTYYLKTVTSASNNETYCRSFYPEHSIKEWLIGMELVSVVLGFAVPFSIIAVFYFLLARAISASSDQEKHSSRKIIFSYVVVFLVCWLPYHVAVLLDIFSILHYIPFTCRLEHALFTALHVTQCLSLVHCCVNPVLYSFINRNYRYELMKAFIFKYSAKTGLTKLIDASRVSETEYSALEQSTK

IC50: 7.77 nM
B1: Nanobody 07C03 with Tag-1 (VHH)
VHH: EVQLVESGGGLVQAGESLTLSCAASGRTLSAYIMGWFRQAPGKEREFVAGIWSGGYTHLADSAKGRFSISRDNAKNTVYLQMNGLKPEDTAVYYCAAGLRGRQYSNWGQGTQVTVSS
